Test results taken from patent US6506595.

Tests used:
[1] = molecular target: MWPmp20-(His)6-EGF-TEV-Somatostatin 28

B1: TEV protease (GIBCO BRL) (protein)
chain: GESLFKGPRDYNPISSTICHLTNESDGHTTSLYGIGFGPFIITNKHLFRRNNGTLLVQSLHGVFKVKNTTTLQQHLIDGRDMIIIRMPKDFPPFPQKLKFREPQREERICLVTTNFQTKSMSSMVSDTSCTFPSSDGIFWKHWIQTKDGQCGSPLVSTRDGFIVGIHSASNFTNTNNYFTSVPKNFMELLTNQEAQQWVSGWRLNADSVLWGGHKVFMSKPEEPFQPVKEATQLMNELVYSQ
With B1 the “cleavage of the fusion protein, shown by SDS-PAGE and Western blotting” value (MWPmp20-TEV-G-GH) was “the mutant human growth hormone G-GH with extra Gly at the N-terminus was cleaved at the same position (as indicated by an arrow) as the commercially available human growth hormone” and the “cleavage of the fusion protein, shown by Western blotting” value [1] was “somatostatin 28 was cleaved out with TEV protease”.
